# Values of other authors as cited in paper PMC9442343.
# Target: IL-18 (Homo sapiens) (UniProt Q14116)
# Sequence (Q14116 37-193): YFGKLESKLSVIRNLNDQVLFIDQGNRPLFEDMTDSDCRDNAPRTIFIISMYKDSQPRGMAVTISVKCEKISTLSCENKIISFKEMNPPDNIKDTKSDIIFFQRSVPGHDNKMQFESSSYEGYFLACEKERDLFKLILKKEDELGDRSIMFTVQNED
# Chain of IL-18BP (O95998 31-194): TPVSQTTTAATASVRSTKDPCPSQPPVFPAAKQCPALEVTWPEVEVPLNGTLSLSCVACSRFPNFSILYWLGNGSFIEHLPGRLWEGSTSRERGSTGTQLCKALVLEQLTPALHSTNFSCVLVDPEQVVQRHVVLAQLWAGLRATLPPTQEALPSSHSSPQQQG
substance,measurement,value
IL-18BP (from UniProt O95998),Kd,0.4 nM
